Here are results for 1 substance from patent US6448376.

For the experiment, the target named is LexA-DP-1 (pLEX(HIS).DP-1: complete bacterial LexA protein fused to DP-1 residues 59 to 410) (bacterial; murine) (UniProt Q08639). Kind of experiment: cell-based or functional assay.
UniProt Q08639, sequence (Q08639 59-410): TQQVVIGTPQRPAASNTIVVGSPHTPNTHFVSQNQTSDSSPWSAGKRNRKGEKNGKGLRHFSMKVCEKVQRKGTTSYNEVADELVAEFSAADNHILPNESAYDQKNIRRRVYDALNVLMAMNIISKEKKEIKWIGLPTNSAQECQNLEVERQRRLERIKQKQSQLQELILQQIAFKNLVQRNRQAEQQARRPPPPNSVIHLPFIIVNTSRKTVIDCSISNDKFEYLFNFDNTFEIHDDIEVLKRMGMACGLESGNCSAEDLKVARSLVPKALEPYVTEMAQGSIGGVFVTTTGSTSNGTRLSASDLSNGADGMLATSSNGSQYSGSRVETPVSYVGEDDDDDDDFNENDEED

“GAD-E2F-5 (pGAD.E2F-5: entire murine E2F-5 as a hybrid with the GAL4 activation domain 768-881) (from UniProt P04386 768-881)”: the transcriptional activity of the E2F site reporter p4xWT CYC1 in yeast is > 6 fold.
